Laboratory results taken from patent US20230136228A1 (LAMKAP BIO ALPHA, published 2023).
Changes are numbered by the printed parent chain. Numbers in names are those of the source.

Experiments:
human CEACAM3 = biological target: T1, human CEACAM3 (human, UniProt P40198 35-252); assay: flow cytometry, MFI on transfected PEAK cells divided by MFI on WT PEAK cells
T1 construct: whole, on cells
T1 sequence (looked up): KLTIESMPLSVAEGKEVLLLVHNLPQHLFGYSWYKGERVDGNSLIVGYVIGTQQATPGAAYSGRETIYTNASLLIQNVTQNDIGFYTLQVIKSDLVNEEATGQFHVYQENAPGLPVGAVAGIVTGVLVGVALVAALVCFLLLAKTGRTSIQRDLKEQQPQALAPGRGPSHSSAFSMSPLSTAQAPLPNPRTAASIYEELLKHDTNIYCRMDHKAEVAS
Description: (§1) Similarly, vectors encoding the full-length version of cyno CEACAM 5 and 6 are also used to express these proteins at the surface of PEAK and/or CHO cells. Non-transfected PEAK and/or CHO cells are used as negative control. Cells are harvested, counted, checked for viability and resuspended at 3×10⁶ cells/ml in FACS buffer (PBS 2% BSA, 0.1% NaN₃). 100 μl of the cell suspension are distributed in V-bottom 96-well plates (3×10⁵ cells/well). The supernatant is removed by centrifugation 3 minutes at 4° C., 1300 rpm and the cells incubated for 15 minutes at 4° C. with increasing concentrations of the antibody according to the invention. The antibodies carrying the anti-CEACAM5 arms to test are diluted in FACS buffer and the concentration range is 30 pM-500 nM. Cells are washed twice with cold FACS buffer and re-incubated for further 15 minutes at 4° C. with a compatible anti-human IgG secondary antibody. Cells are washed twice with cold FACS buffer and resuspended in 300 μl FACS buffer with 1:1500-diluted TOPRO-3 (Invitrogen). Fluorescence is measured using a FACSCalibur™ (BD Biosciences) or a Cytoflex Platform (Beckman Coulter). Dose-response binding curves are fitted using GraphPad Prism8 software. In the same manner, CEACAM1, CEACAM6 and other CEACAMs can be characterized.
(§2) For the bispecific antibodies AB17L3-1/N, AB71L3-1/N, AB72L3-1/N, AB73L3-1/N the MFI measured for binding to CEACAM5 transfected cells was found between 29000 and 41000 (Table 2). In contrast MFI found by using PEAK cells transfected with CEACAM 1,3,4,6,8 were found below 1000 with the only exception of a strong signal for AB72L3-1/N on CEACAM8 transfected cells. When MFI values obtained on transfected cells expressing any given CEACAM are divided by the values obtained on WT PEAK cells, “factors to PEAK WT” can be calculated (Table 3). With the exception of AB72L3-1/N, the antibodies of the invention are all specific to CEACAM5, as the “factor to PEAK WT” values are all below 2.0.

human CEACAM4 [1] = biological target: T2, human CEACAM4 (human, UniProt O75871 36-244); assay: as above
T2 construct: whole, on cells
T2 sequence (looked up): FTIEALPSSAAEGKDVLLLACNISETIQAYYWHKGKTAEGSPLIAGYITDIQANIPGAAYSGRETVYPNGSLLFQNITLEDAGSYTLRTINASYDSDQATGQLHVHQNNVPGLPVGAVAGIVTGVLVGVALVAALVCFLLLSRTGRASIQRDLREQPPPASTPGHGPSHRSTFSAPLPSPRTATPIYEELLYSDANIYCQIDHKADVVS
Description: as §1, §2

human CEACAM6 [2] = biological target: T3, human CEACAM6 (human, UniProt P40199 35-320); assay: as above
T3 construct: whole, on cells; also called CD66c
T3 sequence (looked up): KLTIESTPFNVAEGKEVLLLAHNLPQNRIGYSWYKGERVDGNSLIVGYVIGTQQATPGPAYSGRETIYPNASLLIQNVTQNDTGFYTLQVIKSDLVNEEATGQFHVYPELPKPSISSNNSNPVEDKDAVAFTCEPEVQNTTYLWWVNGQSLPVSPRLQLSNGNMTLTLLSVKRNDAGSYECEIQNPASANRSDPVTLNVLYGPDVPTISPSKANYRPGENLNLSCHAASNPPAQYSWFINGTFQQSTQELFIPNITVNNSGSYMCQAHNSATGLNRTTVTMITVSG
Description: as §1, §2

human CEACAM4 [3] = biological target: T2, human CEACAM4; assay: flow cytometry, transfected PEAK cells, 10 mcg/ml
Description: as §1, with “Vectors encoding the full-length version of human CEACAM 1, 3, 4, 5, 6, 7, 8, 18, 19, 20 and […] are used to express these proteins at the surface of PEAK and/or CHO cells as described in Example 1. Similarly,” for “Similarly,”
(§3) For the bispecific antibodies AB17L3-1/N, AB71L3-1/N, AB72L3-1/N, AB73L3-1/N the MFI measured for binding to CEACAM5 transfected cells was found between 29000 and 41000 (Table 2). In contrast MFI found by using PEAK cells transfected with CEACAM 1,3,4,6,8 were found below 1000 with the only exception of a strong signal for AB72L3-1/N on CEACAM8 transfected cells. When MFI values obtained on transfected cells expressing any given CEACAM are divided by the values obtained on WT PEAK cells, “factors to PEAK WT” can be calculated (Table 3).

human CEACAM6 [4] = biological target: T3, human CEACAM6; assay: flow cytometry, transfected PEAK cells, 10 mcg/ml
Description: as §1, with “Vectors encoding the full-length version of human CEACAM 1, 3, 4, 5, 6, 7, 8, 18, 19, 20 and […] are used to express these proteins at the surface of PEAK and/or CHO cells as described in Example 1. Similarly,” for “Similarly,”
as §3

B1: AB17L3-1/N (bispecific antibody, human IgG1, kappa, lambda, L234A L235A)
heavy: EVQLVESGGGLVQPGGSLKLSCAASGFTFNTYAMNWVRQAPGKGLEWVGRIRSKYNNYATYYADSVKDRFTISRDDSKNTAYLQMNSLKTEDTAVYYCVRHGNFGNSYVSWFAYWGQGTLVTVSSASTKGPSVFPLAPSSKSTSGGTAALGCLVKDYFPEPVTVSWNSGALTSGVHTFPAVLQSSGLYSLSSVVTVPSSSLGTQTYICNVNHKPSNTKVDKRVEPKSCDKTHTCPPCPAPEAAGGPSVFLFPPKPKDTLMISRTPEVTCVVVDVSHEDPEVKFNWYVDGVEVHNAKTKPREEQYNSTYRVVSVLTVLHQDWLNGKEYKCKVSNKALAAPIEKTISKAKGQPREPQVYTLPPSREEMTKNQVSLTCLVKGFYPSDIAVEWESNGQPENNYKTTPPVLDSDGSFFLYSKLTVDKSRWQQGNVFSCSVMHEALHNHYTQKSLSLSPG
light 1: EIVLTQSPATLSLSPGERATLSCRASQSVNSNLNWYQQKPGQAPRLLIYHGSNRATGIPARFSGSGSGTDFTLTISSLEPEDFAVYYCQQFDYFKEHNTFGQGTKVEIKRTVAAPSVFIFPPSDEQLKSGTASVVCLLNNFYPREAKVQWKVDNALQSGNSQESVTEQDSKDSTYSLSSTLTLSKADYEKHKVYACEVTHQGLSSPVTKSFNRGEC
light 2: QTVVTQEPSLTVSPGGTVTLTCRSSTGAVTTSNYANWFQQKPGQAPRGLIGGTNKRAPGTPARFSGSLLGGKAALTLSGAQPEDEAEYYCALWYKQRWVFGGGTKLTVLGQPKAAPSVTLFPPSSEELQANKATLVCLISDFYPGAVTVAWKADSSPVKAGVETTTPSKQSNNKYAASSYLSLTPEQWKSHRSYSCQVTHEGSTVEKTVAPTECS
notes: Kappa-lambda body, lead optimization wave 1
Factor to PEAK WT (human CEACAM3): 1.2 fold
Factor to PEAK WT (human CEACAM4 [1]): 0.8 fold
Factor to PEAK WT (human CEACAM6 [2]): 1 fold
MFI (human CEACAM4 [3]): 431 MFI
MFI (human CEACAM6 [4]): 541 MFI

B2: AB1L3-1/N (bispecific antibody, human IgG1, kappa, lambda, L234A L235A)
heavy: B1 heavy
light 1: B1 light 1 with Y93L, F94R, K95H
light 2: B1 light 2
notes: Kappa-lambda body: common heavy chain (hIgG1 L234A+L235A+P329A), kappa CEA light chain AB1, lambda CD3 light chain L3-1 (1A4); also called parental KL bispecific antibody
Factor to PEAK WT (human CEACAM3): 0.8 fold
Factor to PEAK WT (human CEACAM4 [1]): 0.7 fold
Factor to PEAK WT (human CEACAM6 [2]): 0.8 fold
MFI (human CEACAM4 [3]): 330 MFI
MFI (human CEACAM6 [4]): 373 MFI

B3: AB72L3-1/N (bispecific antibody, human IgG1, kappa, lambda, L234A L235A)
heavy: B1 heavy
light 1: B1 light 1 with G51S, S52T, A55P, T56R, H97Y
light 2: B1 light 2
notes: Kappa-lambda body, lead optimization wave 2
Factor to PEAK WT (human CEACAM3): 1 fold
Factor to PEAK WT (human CEACAM4 [1]): 0.8 fold
Factor to PEAK WT (human CEACAM6 [2]): 1.2 fold
MFI (human CEACAM4 [3]): 402 MFI
MFI (human CEACAM6 [4]): 562 MFI

B4: AB73L3-1/N (bispecific antibody, human IgG1, kappa, lambda, L234A L235A)
heavy: B1 heavy
light 1: B1 light 1 with G51S, S52N, A55P, T56H, K95R, H97Y
light 2: B1 light 2
notes: as for B3
Factor to PEAK WT (human CEACAM3): 0.9 fold
Factor to PEAK WT (human CEACAM4 [1]): 0.7 fold
Factor to PEAK WT (human CEACAM6 [2]): 1 fold
MFI (human CEACAM4 [3]): 352 MFI
MFI (human CEACAM6 [4]): 490 MFI

B5: AB71L3-1/N (bispecific antibody, human IgG1, kappa, lambda, L234A L235A)
heavy: B1 heavy
light 1: B1 light 1 with G51S, A55P, T56H
light 2: B1 light 2
notes: as for B3
Factor to PEAK WT (human CEACAM3): 0.8 fold
Factor to PEAK WT (human CEACAM4 [1]): 0.7 fold
Factor to PEAK WT (human CEACAM6 [2]): 1 fold
MFI (human CEACAM4 [3]): 323 MFI
MFI (human CEACAM6 [4]): 420 MFI
